In patent US20180244743A1:

Legend:
[1] = target: human insulin receptor, A isoform (human) (UniProt P06213); assay: SPA competition with [125I-A14Y]-human insulin, solubilised hIR-A, 0% HSA (Ex 25)
[2] = target: human insulin receptor, A isoform (human) (UniProt P06213); assay: SPA competition with [125I-A14Y]-human insulin, membrane-associated hIR-A, 0.1% HSA (Ex 26)
[3] = target: human insulin receptor, B isoform (human) (UniProt P06213); assay: SPA competition with [125I-A14Y]-human insulin, membrane-associated hIR-B, 0.1% HSA (Ex 26)
[4] = target: human insulin receptor, A isoform (human) (UniProt P06213); assay: SPA competition with [125I-A14Y]-human insulin, solubilised hIR-A, […] HSA (Ex 25)
[5] = target: human insulin-like growth factor 1 receptor (human) (UniProt P08069); assay: SPA competition with [125I-Tyr31]-human IGF-1, membrane-associated hIGF-1R, 0.1% HSA (Ex 26)

Row | relative binding affinity (% rel to HI) [1] | relative binding affinity (% rel to HI) [2] | relative binding affinity (% rel to HI) [3] | relative binding affinity (% rel to HI) [4] | relative binding affinity (% rel to HI) [5] | Substance
1 | 63.8 % rel to HI | 31 % rel to HI | 36.8 % rel to HI | 37.4 % rel to HI | – | A14E, A21A, B3Q, desB27, B29K(N(eps)tetradecanedioyl-4×gGlu), desB30 human insulin (ligand)
2 | 70.5 % rel to HI | 40.5 % rel to HI | 42.3 % rel to HI | 32.3 % rel to HI | – | A21A, B3E, desB27, B29K(N(eps)tetradecanedioyl-4×gGlu), desB30 human insulin (ligand)
3 | 99.5 % rel to HI | 14.1 % rel to HI | 15.4 % rel to HI | 8.2 % rel to HI | – | A21A, B3Q, desB27, B29K(N(eps)hexadecanedioyl-4×gGlu), desB30 human insulin (ligand)
4 | 100 % rel to HI | 89.6 % rel to HI | 90.2 % rel to HI | 42.4 % rel to HI | – | A8H, A21G, B3E, desB27, B29K(N(eps)tetradecanedioyl-gGlu-2×OEG), desB30 human insulin (ligand)
5 | 87.7 % rel to HI | 63.8 % rel to HI | 48.8 % rel to HI | 32 % rel to HI | – | A21A, B3Q, desB27, B29K(N(eps)tetradecanedioyl-gGlu-2×OEG), desB30 human insulin (ligand)
6 | 76.9 % rel to HI | 15.8 % rel to HI | 14.6 % rel to HI | 5.6 % rel to HI | – | A21A, B3Q, desB27, B29K(N(eps)hexadecanedioyl-gGlu-2×OEG), desB30 human insulin (ligand)
7 | 23.8 % rel to HI | 28.9 % rel to HI | 29 % rel to HI | 9.2 % rel to HI | – | A21G, B3E, desB27, B29K(N(eps)tetradecanedioyl-gGlu-2×OEG), desB30 human insulin (ligand)
8 | 63.4 % rel to HI | 52.1 % rel to HI | 49.6 % rel to HI | 22.3 % rel to HI | – | A21A, B3E, desB27, B29K(N(eps)tetradecanedioyl-gGlu-2×OEG), desB30 human insulin (ligand)
9 | 225 % rel to HI | 83.7 % rel to HI | 81.9 % rel to HI | 82.3 % rel to HI | – | A8H, A21A, B3E, desB27, B29K(N(eps)tetradecanedioyl-gGlu-2×OEG), desB30 human insulin (ligand)
10 | 69 % rel to HI | 14.2 % rel to HI | 15 % rel to HI | 6.2 % rel to HI | – | A21A, B3E, desB27, B29K(N(eps)hexadecanedioyl-4×gGlu), desB30 human insulin (ligand)
11 | 103 % rel to HI | 61.3 % rel to HI | 67.9 % rel to HI | 45.5 % rel to HI | – | A8R, B3E, desB27, B29K(N(eps)tetradecanedioyl-gGlu-2×OEG), desB30 human insulin (ligand)
12 | 104 % rel to HI | 49.4 % rel to HI | 62.9 % rel to HI | 42.4 % rel to HI | – | A21A, B3Q, desB27, B29K(N(eps)tetradecanedioyl-4×gGlu), desB30 human insulin (ligand)
13 | – | – | – | – | 4.1 % rel to HI | B3Q, desB27, B29K(N(eps)tetradecanedioyl-4×gGlu), desB30 human insulin (from UniProt P01308 90-110) (ligand)
14 | – | 14.3 % rel to HI | 13.2 % rel to HI | 3.6 % rel to HI | 0.1 % rel to HI | A21A, B3E, desB27, B29K(N(eps)hexadecanedioyl-gGlu-2×OEG), desB30 human insulin (ligand)
15 | 253 % rel to HI | 88.5 % rel to HI | 124 % rel to HI | 135 % rel to HI | – | A8H, A21A, B3E, desB27, B29K(N(eps)tetradecanedioyl-4×gGlu), desB30 human insulin (ligand)
16 | 172 % rel to HI | 84.1 % rel to HI | 82.1 % rel to HI | 70.5 % rel to HI | – | A8H, B3E, desB27, B29K(N(eps)tetradecanedioyl-gGlu-2×OEG), desB30 human insulin (ligand)
